The record followed here is publication PMC12412785.

For series [1], the target named is PpRAD51-2, purified recombinant (P. patens).
Series [2] has as its system PpBRCA2-NterT138 (Physcomitrium patens). The experiment in a line: BLI. Conditions: text cites Fig. 7B; Kd in Fig. 7C not in text; EMSA: 10 mM Tris-HCl pH 7.5, 50 mM NaCl, 5 mM MgCl2, 2 mM ATP, 1 mM DTT, 37 C, 7 min (RAD51/DMC1 15 min), 0.01% glutaraldehyde; BLI: 25 mM Tris pH 7.5, 100 mM …. In general terms: A gel shift assay detects complexes by their altered migration in electrophoresis.

The target in series [3] is 6His-PpBRCA2-Cter (amino acids 251–391) (P. patens). The experiment in a line: BLI; 6His-PpBRCA2-Cter immobilised on Ni-NTA biosensors, PpRAD51-2 in solution (1.88–30 nM); buffer A with 0.1% Tween-20; 25°C. (In BLI a coated tip is dipped into the sample, and binding shifts an interference pattern.)
Series [4] addresses biotinylated PpBRCA2-BRC4 peptide (P. patens). The experiment in a line: BLI; biotinylated BRC peptides (0.5 μM) immobilised on streptavidin biosensors, PpRAD51-2 in solution in two-fold serial dilutions; 25°C; buffer A (25 mM Tris pH 7.5, 100 mM Na2SO4, 5 mM β-mercaptoethanol) with 0.05% Tween-20; Kd in steady-state mode.
Series [5] has as its target biotinylated PpBRCA2-BRC2 peptide (P. patens). The series is described as above.
The target in series [6] is biotinylated PpBRCA2-BRC1 peptide (P. patens). The series is described as above.

One may read the Kd as the concentration at which binding is half-saturated. A lower Kd goes with higher affinity.

In the case of biotinylated PpBRCA2-BRC4 peptide, in series [1], the concentration needed for complete inhibition of PpRAD51-ssDNA filament formation (EMSA; 1 μM RAD51-2, 3 μM 100 nt ssDNA, 0–4 μM PpBRCA2-BRC4) is > 4 µM.

As to “6His-PpBRCA2-Cter (amino acids 251–391) (domain or fragment)”, in series [1], the concentration needed for complete inhibition of PpRAD51-ssDNA filament formation (EMSA; 1 μM RAD51-2, 3 μM 100 nt ssDNA, 0–4 μM PpBRCA2-Cter) came to 2 µM.

For 100 nt ssDNA (BLI), in series [2], the fold decrease in affinity relative to PpBRCA2-Nter (fold weaker affinity than PpBRCA2-Nter) was 50.

For the substance “PpRAD51-2, purified recombinant (natural protein)”, the Kd in series [3] is 4.3 nM; in series [4], 400 nM; in series [5], 800 nM; in series [6], 400 nM.
